Assay: soluble on expression in E. coli; label from the status in PepcDB or PDB records

Question: Which “soluble on expression in E. coli” value does the source give for “MHLYYLGPKGTFSYLAAKQFESHEQYDFIPLSNLHEVIQSVSKDKQAVGIVPIENSIEGTINIVADSLAHHDVYAHGEIQLDIDFSLYGHHSNSLDDIHKVYSIAPAISQTINYIHRQQFDYDYVDSTIQSLNMIKDGIGAIAPLGSGETYGYHTLDQHIQDYPHNVTRFLVVKNHTHFIEHPNTTIFLITPKYDKPGLLASVLNTFTLFNINLSWIESRPLKTQLGMYHFYVQADTAINNDVNKIISILETLDFQVKIIGAFNKKN” here?
Answer: not soluble

Question: With “MHNISAKKFLGYLKNKCLEFGVKVIEGNPAYTSIKCPNCGSRLSQLYKLADERALPSRLMYCFDCGFYADRDTVAVFNLIKRFTGLYPFSPKSNEPIAEGTVFPDEAMGLEHHHHHH” as the sequence, how does the “soluble on expression in E. coli” value read?
Answer: soluble

Question: Which “soluble on expression in E. coli” value does the source give for “MHYCPGCSHGVVHKLIAEVIEEMGLTEETIGIAPVGCSVFAYRYIDIDWQEAAHGRAPALATAVKRLNPSKLVFTYQGDGDLAAIGTAETIHAANRGENIAIIFINNGIYGMTGGQMAPTTLEGMVTATCPQGRNVELNGYPLKIADMLALLDGTCLVTRQTVHNAAAVRKTKKMIQKAFENSMNRKGTSIVEVVSTCNTGWKMSPAASNDWMMENMAKQYPLGDLKNID” here?
Answer: not soluble

Question: Which “soluble on expression in E. coli” value does the source give for “MIAEAAAVEVQANEAPVVAPIMYKVESNDGKVFEISDEAVKQSNILSNLISTCAPEDVASMDPIPITNVTGNILKMVIEWCEKHKGEALPVEDDSVPKNINVPEWDTNFLKIDNEVLFDLIVACNYLDVPGLMNYGCKMVANMAIGKSPDELRIIFAIPTDEEDEAAERAAKEKAEAEKKAIADKDAAEPSTSK” here?
Answer: soluble

Question: For “MIAEFESRILALIDGMVDHASDDELFASGYLRGHLTLAIAELESGDDHSAQAVHTTVSQSLEKAIGAGELSPRDQALVTDMWENLFQQASQL”, which “soluble on expression in E. coli” value is on record?
Answer: not soluble

Question: With “MIAIISLPGISMASSKSLQQAIANIKIWHKGEQRAPHKPLLLLYVLAGYLNGHPRLFDYGTEIYEPLHSLLERFGPQRSQYRPDMPFWRLQGDGIWQLHNAERCSTAGSSRQPPVKELNEYHVAGGFDEQHYALVTGNKKLINTLAQQILEAHFTESIQEEIADELGFDLQQTRKQRDPLFRKNVLRAYNYQCAICGFNMRHDDTTVALEAAHIKWKQHGGPCEIPNGLALCAIHHKAFDKGSIGLDENMRVLVSDAVNGGGIVERLFWDFDGKTIALPQVRKNYPYEGFVGER” as the sequence, how does the “soluble on expression in E. coli” value read?
Answer: not soluble

Question: With “MIAMIVKGGLAMAISNGHVSFKRPAWLGDSITANNGLATVHYHDILAADWDVERSDNLGISGSTIGSRYDAMAVRYQAIPEDADFIAVFGGVNDYGRDQPLGQYGDCDMTTFYGALMMLLTGLQTNWPTVPKLFISAIHIGSDFGGSFSAVTNGLGYRQSDYEAAIAQMTADYGVPHLSLYRDAGMTFAIPAQAAIYSVDTLHPNNAGHRVIARKLQSFLDSHFLEHHHHHH” as the sequence, how does the “soluble on expression in E. coli” value read?
Answer: soluble

Question: For “MIASSPIDAAALRASVAAALDPSTAVATLARFDTHAPRLLDALSTLYGDHADYVTWLPQWLSALGVVAQARPAALRHLDDSRAPGWFGQQDMLGYSAYVDRFAGTLRGVAERVPYLQELGVRYLHLLPFLRARAGDNDGGFAVSDYGQVEPALGSNDDLVALTARLRAANISLCADFVLNHTADDHAWAQAARAGDTRYLDYYHHFADRNAPDQYDTTLVQVFPQTAPGNFTWVDETRQWMWTTFYPYQWDLNWSNPAVFGEMALAMLELANLGVEAFRLDSTAYLWKRPGTNCMNQPEAHTILVALRAVADIVAPSVVMKAEAIVPMAELPPYFGSGVQRGHECHLAYHSTLMAAGWSALALQRGDILQDVIAHSPPLPPNCAWLSYVRCHDDIGWNVLQHEAAGTAAQPPFSLREVAQFYANAVPGSYARGESFQSSGDGVHGTNGMSAALVGVQAAHEHADAAAAARAVDRLVLLYAVSLAMPGVPLIYMGDELALPNDTAYLDDAQRRHEGRWLHRPAMAWELAAQRHDASTLAGTVYTRLRALIRLRAGLPALAATQSLGSVALGDARLFALTRGDSFLAVHNFSDVPLPVDLTQTGHALWAVLDTDGTGDAPEPHTELLLPAYGVRWLQRR”, which “soluble on expression in E. coli” value is on record?
Answer: soluble

Question: Which “soluble on expression in E. coli” value does the source give for “MICCLGPRGSYSEKAAVTFSKAINDSEIQFEDSIYNVFKAVETNPEFFGVVPSENSIGGSVSITQDLLLEFPVKILGEVDISINHCLLGYDIKKVTEVLAHPQALAQCGHYITKNNWNITPVDSNAKAAKIVSEEKDEKLAAICGVENAEIYGLNVLDEYIQDFKNNTTRFFLICNKNK” here?
Answer: not soluble

Question: For “MIDINLIREKPDYVKERLATRDKELVSLVDKVLELDKRRREIIKRLEALRSERNKLSKEIGKLKREGKDTTEIQNRVKELKEEIDRLEEELRKVEEELKNTLLWIPNLPHPSVPVGEDEKDNVEVRRWGEPRKFDFEPKPHWEIGERLGILDFKRGAKLSGSRFTVIAGWGARLERALINFMLDLHTKKGYKEICPPHLVKPEILIGTGQLPKFEEDLYKCERDNLYLIPTAEVPLTNLYREEILKEENLPIYLTAYTPCYRREAGAYGKDIRGIIRQHQFDKVELVKIVHPDTSYDELEKLVKDAEEVLQLLGLPYRVVELCTGDLGFSAAKTYDIEVWFPSQNKYREISSCSNCEDFQARRMNTRFKDSKTGKNRFVHTLNGSGLAVGRTLAAILENYQQEDGSVVVPEVLRDYVGTDVIRPE”, which “soluble on expression in E. coli” value is on record?
Answer: soluble

Question: Which “soluble on expression in E. coli” value does the source give for “MIDRQTNEPKQKTRIILAPMQGLVDDVMRDLLTRIGGYDECVSEFVRITHTVHSRSIWLKYVPEIANGNKTFSGTPCTVQLLGSDADNMAANALEAVRFGANKIDLNFGCPAPTVNKHKGGAILLKEPELIFHIVKTLRGRLPAHIPLTAKMRLGYEDKSRALECACAIAEGGACGLTVHARTKAEGYEPPAHWEWIRKIRDSVNIPVTANGDVFSLQDYIGIKTISGCNSVMLGRGAVIRPDLARQIKQYENGGPVKDTDFAEVSKWIRQFFELCLTKEANNKYPLARLKQWLGMMKKEFAAAQNLFDRVRTVKDADEVRNILAEFEREMNT” here?
Answer: not soluble

Question: With “MIDSRLLAWAYLSKVVEGPNAHLQKLLKEGHDVERIAFGIKHREEWIGEGLLKNTDSRYSIDTAQTDLETIAKLGGRLITPEDDEWPMEELDHAFGFAASGMSDHVRTYQDDALPPHALWIRGGNLRTLSAQSVTLVGTRAISQYGTEVTREFTQNLVSHQWTIISGGALGVDSVAHSEAVRAQGSTIAIAACGLDRSYPSHNRDLFNQIAKSGKGALVSEYPPGTPPQRHRFLTRNRLVAALSQGTVVVEAAWRSGALNTLSWCAGLGRIAMAVPGPVNTAGSLGCHERIRNGSAQMVTSADDVRSLLGAVGAMDSQTQYELNFAATPVQGLTRNELRVFDALDDRGEGREAASIATEAGLTLQLTIFLLIALNKRGIVKRDGTAWSRNAEMP” as the sequence, how does the “soluble on expression in E. coli” value read?
Answer: not soluble

Question: With “MIEAEEQQPCKTDFYSELPKVELHAHLNGSISSHTMKKLIAQKPDLKIHDQMTVIDKGKKRTLEECFQMFQTIHQLTSSPEDILMVTKDVIKEFADDGVKYLELRSTPRRENATGMTKKTYVESILEGIKQSKQENLDIDVRYLIAVDRRGGPLVAKETVKLAEEFFLSTEGTVLGLDLSGDPTVGQAKDFLEPLLEAKKAGLKLALHLSEIPNQKKETQILLDLLPDRIGHGTFLNSGEGGSLDLVDFVRQHRIPLGKAWSFRSSR” as the sequence, how does the “soluble on expression in E. coli” value read?
Answer: soluble

Question: For “MIEFTALDDLSLLRESVSLECKLAQGRDGKGALPDDFWPTYSAMANTDGGIVILGVRERKGQFEVAGIENPDKLRTELFNHLNNRQKVSVNLLRDEDVRAWPVEGKTLLVVEIPRARRQQRPVYLRGNPLGGHTYRRLHEGDRPLPDEDVKRMLAEQVEDSRDERILPGYGLDDLHLESLRAYRQLFANRDPSHPWNALADQAFLRQIGGWRQHRETGEAGLTLAGLLMFGQWSSITEAVPLCFLDYQERPADYATTVQWLDRIVPDGTWSGNVFDFYRRVVGKLTADIKVPFVLKGDIRQDDTPTHKALREALVNTLVHADYTGRISVLVVKEPAGFVLRNPGGLRVPAQQALQGGMSDCRNRTMQQMFLMIGLGERAGSGMSRIVHGWRDLGHELHLRESYEPHEHSVLEMFWAKGRGATLASESSEESSEESSEETGKKILHLLREEPSLTASALARRLQLTPRAIEKQLAKLKAQKRLRRIGPNKGGHWEVGELEHHHHHH”, which “soluble on expression in E. coli” value is on record?
Answer: soluble

Question: For “MIEIKDKQLTGLRFIDLFAGLGGFRLALESCGAECVYSNEWDKYAQEVYEMNFGEKPEGDITQVNEKTIPDHDILCAGFPCQAFSISGKQKGFEDSRGTLFFDIARIVREKKPKVVFMENVKNFASHDNGNTLEVVKNTMNELDYSFHAKVLNALDYGIPQKRERIYMICFRNDLNIQNFQFPKPFELNTFVKDLLLPDSEVEHLVIDRKDLVMTNQEIEQTTPKTVRLGIVGKGGQGERIYSTRGIAIGLSAYGGGIFAKTGGYLVNGKTRKLHPRECARVMGYPDSYKVHPSTSQAYKQFGNSVVINVLQYIAYNIGSSLNFKPY”, which “soluble on expression in E. coli” value is on record?
Answer: soluble

Question: Which “soluble on expression in E. coli” value does the source give for “MIEITVNDRLGKKVRIKCNPSDTIGDLKKLIAAQTGTRWEKIVLKKWYTIYKDHITLMDYEIHEGFNFELYYQ” here?
Answer: not soluble

Question: For “MIEMLLYEDTRMRAVEILRSLPIGNSGVSGLVQLAATLGASVEFRPSIPPFPESLSKKMNKTQKYTSTQMSQKFDNASHSPTK”, which “soluble on expression in E. coli” value is on record?
Answer: not soluble

Question: With “MIETLEENLEKVFKAIRSLIIEDMAKDMPMLALTLELLQSIPGIGLISAVTILAEIGDFSAFSKPGKLVAYFGIDPSVMQSGEFTGTQNKMSKRGSRLLRRVLFTIALANIRTKRDKTACNPVLMEYYKNKCQSKPKKVALGAVMRKLVNYIFAVLRDRKPYELRSPQEHAQMLAAKHTAA” as the sequence, how does the “soluble on expression in E. coli” value read?
Answer: not soluble

Question: For “MIFSVRGEVLEVALDHAVIEAAGIGYRVNATPSALATLNQGSQARLVTAMVVREDSMTLYGFSDAENRDLFLALLSVSGVGPRLAMATLAVHDAAALRQALADSDVASLTRVPGIGRRGAERIVLELADKVGPVGASGLTVGTAADGNAVRGSVVEALVGLGFAAKQAEEATDQVLDGELGKDGAVATSSALRAALSLLGKTR”, which “soluble on expression in E. coli” value is on record?
Answer: soluble

Question: Which “soluble on expression in E. coli” value does the source give for “MIFTYNKEHVGDVLMVIVKDSKGAKLNCERKGKVTRIFLEKNKETVAWNIFAVSNLLDLNGNGQVFLTDEELAVLNAELAKEGFEEKLENNAAAKFVVGEIVEMVAHPDSDHLNICQVKIAEDKTVQIVAGAPNARVGLKTIVALPGAMMPSGGLIFPGNLRGEKSFGMLCSPRELALPKAPQKRGIIELSTDAVIGQAFDAGKHWKGLEHHHHHH” here?
Answer: not soluble

Question: For “MIFVGNFIQDEKGKGLRIGFVHYRPFDETVGMNLPEETIRQMGALVDEIPEPEQREGKIPVMYYNPETNTVYYEYEDKPLSLEEEIKYLKELNAELIYQLMMKGAL”, which “soluble on expression in E. coli” value is on record?
Answer: not soluble

Question: Which “soluble on expression in E. coli” value does the source give for “MIGLMKGLAYTLKELTREKVTYDYPHEPLPLPDRFRGIQKFYPEKCIVCNQCVNICPTECIQLTGKKHPDPTKKGKVIETYNINFEICILCDLCTEVCPTEAIVMTNNFELAEYSRDALYKDLAWLDENDTNIRRENKP” here?
Answer: not soluble

Question: Which “soluble on expression in E. coli” value does the source give for “MIGVASSAVFDLLASDAVFQSQGEEEYRKFQQKNLHVPLPKGIAFPFIKRLLSVNDLSVDPTDPLVEVILLPRNDPDTGLRVLKTIEHYELGMTRAIFMQGKSPYEYIPALNIALFLSGDKKDVEAAIRAGYPAGQVLDSKFEDDETDKTLRIAFDFDGVLAGDESETIMQASGLSEFHSHEVKNVMQPHNPGPLKEFMVRISKIQSVEEKHKKLNPKYENRIRVSIVTARNAPSHERAMNTLKSWGVMANDAFFLGGIEKGKILSVLKPHIFFDDQSGHLKSTSAVAPSVHIPFGITNHVSTVDAIEPEADQVQQVV” here?
Answer: not soluble

Question: With “MIIKVIPVGPIAVNCSVVADEKSGEAIIIDPGAEAEKILEAVKDFKVVGIVATHGHIDHVGQVGKLKELFDVPFYMNPLDKFLINDEIWSGFASYIGAVPCPEPDVEISEGDVIRVGDVEFKVLHTPGHTPGLCCLYEEKRRVLIAGDLLFKGSVGRWDLPGGNLVELKKSVKRVLTELPQDTLVICGHYDETTIGQERAFNPFAGELLNG” as the sequence, how does the “soluble on expression in E. coli” value read?
Answer: soluble

From the DeepSol protein solubility set
